Measured values as given in US20260151499A1, “ANTIBODY DERIVATIVE AND USE THEREOF” (TSINGHUA UNIVERSITY, priority 2023, published 2026).
Changes are numbered by the printed parent chain. “And” between values parts separate entries of the source, which are not always exact repeats. Equal entries are not always repeated. Where two headings read alike, the source gives them in different places.

Legend:
[1] = target: T1, CD73 (Homo sapiens, UniProt P21589); assay: CD73 inhibition, AMP hydrolysis, malachite green phosphate assay; format: biochemical; conditions: for IC50: full-length IgG1 conjugated to BN3, read-out: IC50 ± SD (nM) of Ab-BN3 for inhibition of CD73
T1 construct: His (Chis) (C); made in house; host or cells: 293 cells
T1 sequence (P21589 27-549 limits assumed): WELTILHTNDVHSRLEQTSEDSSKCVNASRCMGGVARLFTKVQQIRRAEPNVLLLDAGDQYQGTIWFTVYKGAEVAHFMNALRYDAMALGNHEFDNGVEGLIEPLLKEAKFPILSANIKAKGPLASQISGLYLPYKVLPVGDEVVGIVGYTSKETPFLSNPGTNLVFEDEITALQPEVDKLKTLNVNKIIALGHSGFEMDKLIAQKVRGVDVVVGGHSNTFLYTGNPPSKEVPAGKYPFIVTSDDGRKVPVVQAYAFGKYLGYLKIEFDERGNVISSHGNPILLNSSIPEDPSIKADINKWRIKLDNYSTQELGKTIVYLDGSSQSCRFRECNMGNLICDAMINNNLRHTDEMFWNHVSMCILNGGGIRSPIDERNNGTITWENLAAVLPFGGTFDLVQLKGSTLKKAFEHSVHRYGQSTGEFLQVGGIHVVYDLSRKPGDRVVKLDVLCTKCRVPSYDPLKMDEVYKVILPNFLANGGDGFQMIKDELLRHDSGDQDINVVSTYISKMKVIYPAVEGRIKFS

[2] = target: T2, NaV1.2 (Homo sapiens, UniProt Q99250); assay: Whole-cell patch clamp, HEK293-NaV1.2 cells; format: cell-based; conditions: for inhibitory activity against NaV1.2 at 100 nM (in words): 100 nM Ab-ASF; for inhibitory activity against NaV1.2 (in words): tested up to 500 nM
T2 construct: expressed in transfected cells; host or cells: HEK293

[3] = target: T3, NaV1.7 (Homo sapiens, UniProt Q15858); assay: Whole-cell patch clamp, HEK293-NaV1.7 cells; format: cell-based
T3 construct: expressed in transfected cells; host or cells: HEK293

[4] = target: T1, CD73; assay: Octet BLI affinity for CD73, Ab-BN3 on protein A sensors; format: binding
[5] = non-competitive screening clones, 15 min incubation, read-out: IC50 ± SEM (nM) of Ab-PEG3-ASF in inhibiting NaV1.7
[6] = competitive screening clones, read-out: IC50 ± SEM of NaV1.7-selective Ab-ASF

T3 sequence (Q15858 whole entry): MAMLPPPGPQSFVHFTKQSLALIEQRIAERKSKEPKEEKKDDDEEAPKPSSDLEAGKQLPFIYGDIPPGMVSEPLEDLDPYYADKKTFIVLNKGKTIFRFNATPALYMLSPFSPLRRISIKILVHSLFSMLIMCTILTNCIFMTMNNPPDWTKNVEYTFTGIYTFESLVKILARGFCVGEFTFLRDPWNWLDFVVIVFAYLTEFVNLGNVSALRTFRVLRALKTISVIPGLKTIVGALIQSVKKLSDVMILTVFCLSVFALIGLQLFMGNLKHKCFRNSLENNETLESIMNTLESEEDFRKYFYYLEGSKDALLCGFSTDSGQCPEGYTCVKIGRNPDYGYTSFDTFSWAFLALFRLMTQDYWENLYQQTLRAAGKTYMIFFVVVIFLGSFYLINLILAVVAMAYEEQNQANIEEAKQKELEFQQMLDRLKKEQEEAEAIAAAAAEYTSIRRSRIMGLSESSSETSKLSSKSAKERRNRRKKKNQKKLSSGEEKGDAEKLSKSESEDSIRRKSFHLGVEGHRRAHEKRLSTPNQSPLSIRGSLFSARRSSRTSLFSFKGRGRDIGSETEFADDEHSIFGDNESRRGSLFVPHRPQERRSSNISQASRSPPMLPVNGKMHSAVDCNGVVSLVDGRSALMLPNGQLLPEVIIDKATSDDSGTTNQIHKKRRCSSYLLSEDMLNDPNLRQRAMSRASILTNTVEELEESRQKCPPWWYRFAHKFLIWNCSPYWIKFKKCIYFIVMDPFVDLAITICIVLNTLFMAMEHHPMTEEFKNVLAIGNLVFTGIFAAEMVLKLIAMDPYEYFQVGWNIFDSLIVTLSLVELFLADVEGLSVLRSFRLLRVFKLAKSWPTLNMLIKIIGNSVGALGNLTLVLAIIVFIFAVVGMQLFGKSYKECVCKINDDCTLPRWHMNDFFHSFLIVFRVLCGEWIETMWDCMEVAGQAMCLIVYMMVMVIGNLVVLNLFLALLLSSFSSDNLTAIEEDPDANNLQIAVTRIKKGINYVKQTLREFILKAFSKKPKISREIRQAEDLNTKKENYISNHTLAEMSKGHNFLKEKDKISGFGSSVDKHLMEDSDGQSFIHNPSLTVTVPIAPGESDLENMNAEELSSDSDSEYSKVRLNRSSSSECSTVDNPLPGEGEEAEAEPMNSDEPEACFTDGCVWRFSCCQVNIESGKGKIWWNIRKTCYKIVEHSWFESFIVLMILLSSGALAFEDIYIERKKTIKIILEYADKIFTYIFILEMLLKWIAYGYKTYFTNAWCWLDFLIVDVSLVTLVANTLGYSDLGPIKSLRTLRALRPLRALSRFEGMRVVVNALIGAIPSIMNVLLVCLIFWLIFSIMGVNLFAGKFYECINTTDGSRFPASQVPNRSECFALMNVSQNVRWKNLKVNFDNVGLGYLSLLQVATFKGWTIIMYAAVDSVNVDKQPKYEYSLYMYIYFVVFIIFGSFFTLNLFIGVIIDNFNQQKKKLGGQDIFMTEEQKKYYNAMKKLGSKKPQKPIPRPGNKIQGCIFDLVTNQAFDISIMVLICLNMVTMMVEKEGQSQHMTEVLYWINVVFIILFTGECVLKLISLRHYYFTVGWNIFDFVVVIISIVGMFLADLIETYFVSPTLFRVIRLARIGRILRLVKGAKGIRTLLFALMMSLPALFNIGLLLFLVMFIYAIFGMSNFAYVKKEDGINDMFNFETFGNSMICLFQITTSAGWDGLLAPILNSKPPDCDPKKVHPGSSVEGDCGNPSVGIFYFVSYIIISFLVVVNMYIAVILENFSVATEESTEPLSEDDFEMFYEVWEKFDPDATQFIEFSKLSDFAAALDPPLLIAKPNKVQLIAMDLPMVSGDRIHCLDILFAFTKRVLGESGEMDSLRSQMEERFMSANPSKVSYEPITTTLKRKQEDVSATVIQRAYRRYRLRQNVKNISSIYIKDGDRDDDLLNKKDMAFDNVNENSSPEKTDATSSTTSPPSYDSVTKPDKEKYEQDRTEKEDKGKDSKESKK
T2 sequence (Q99250 whole entry): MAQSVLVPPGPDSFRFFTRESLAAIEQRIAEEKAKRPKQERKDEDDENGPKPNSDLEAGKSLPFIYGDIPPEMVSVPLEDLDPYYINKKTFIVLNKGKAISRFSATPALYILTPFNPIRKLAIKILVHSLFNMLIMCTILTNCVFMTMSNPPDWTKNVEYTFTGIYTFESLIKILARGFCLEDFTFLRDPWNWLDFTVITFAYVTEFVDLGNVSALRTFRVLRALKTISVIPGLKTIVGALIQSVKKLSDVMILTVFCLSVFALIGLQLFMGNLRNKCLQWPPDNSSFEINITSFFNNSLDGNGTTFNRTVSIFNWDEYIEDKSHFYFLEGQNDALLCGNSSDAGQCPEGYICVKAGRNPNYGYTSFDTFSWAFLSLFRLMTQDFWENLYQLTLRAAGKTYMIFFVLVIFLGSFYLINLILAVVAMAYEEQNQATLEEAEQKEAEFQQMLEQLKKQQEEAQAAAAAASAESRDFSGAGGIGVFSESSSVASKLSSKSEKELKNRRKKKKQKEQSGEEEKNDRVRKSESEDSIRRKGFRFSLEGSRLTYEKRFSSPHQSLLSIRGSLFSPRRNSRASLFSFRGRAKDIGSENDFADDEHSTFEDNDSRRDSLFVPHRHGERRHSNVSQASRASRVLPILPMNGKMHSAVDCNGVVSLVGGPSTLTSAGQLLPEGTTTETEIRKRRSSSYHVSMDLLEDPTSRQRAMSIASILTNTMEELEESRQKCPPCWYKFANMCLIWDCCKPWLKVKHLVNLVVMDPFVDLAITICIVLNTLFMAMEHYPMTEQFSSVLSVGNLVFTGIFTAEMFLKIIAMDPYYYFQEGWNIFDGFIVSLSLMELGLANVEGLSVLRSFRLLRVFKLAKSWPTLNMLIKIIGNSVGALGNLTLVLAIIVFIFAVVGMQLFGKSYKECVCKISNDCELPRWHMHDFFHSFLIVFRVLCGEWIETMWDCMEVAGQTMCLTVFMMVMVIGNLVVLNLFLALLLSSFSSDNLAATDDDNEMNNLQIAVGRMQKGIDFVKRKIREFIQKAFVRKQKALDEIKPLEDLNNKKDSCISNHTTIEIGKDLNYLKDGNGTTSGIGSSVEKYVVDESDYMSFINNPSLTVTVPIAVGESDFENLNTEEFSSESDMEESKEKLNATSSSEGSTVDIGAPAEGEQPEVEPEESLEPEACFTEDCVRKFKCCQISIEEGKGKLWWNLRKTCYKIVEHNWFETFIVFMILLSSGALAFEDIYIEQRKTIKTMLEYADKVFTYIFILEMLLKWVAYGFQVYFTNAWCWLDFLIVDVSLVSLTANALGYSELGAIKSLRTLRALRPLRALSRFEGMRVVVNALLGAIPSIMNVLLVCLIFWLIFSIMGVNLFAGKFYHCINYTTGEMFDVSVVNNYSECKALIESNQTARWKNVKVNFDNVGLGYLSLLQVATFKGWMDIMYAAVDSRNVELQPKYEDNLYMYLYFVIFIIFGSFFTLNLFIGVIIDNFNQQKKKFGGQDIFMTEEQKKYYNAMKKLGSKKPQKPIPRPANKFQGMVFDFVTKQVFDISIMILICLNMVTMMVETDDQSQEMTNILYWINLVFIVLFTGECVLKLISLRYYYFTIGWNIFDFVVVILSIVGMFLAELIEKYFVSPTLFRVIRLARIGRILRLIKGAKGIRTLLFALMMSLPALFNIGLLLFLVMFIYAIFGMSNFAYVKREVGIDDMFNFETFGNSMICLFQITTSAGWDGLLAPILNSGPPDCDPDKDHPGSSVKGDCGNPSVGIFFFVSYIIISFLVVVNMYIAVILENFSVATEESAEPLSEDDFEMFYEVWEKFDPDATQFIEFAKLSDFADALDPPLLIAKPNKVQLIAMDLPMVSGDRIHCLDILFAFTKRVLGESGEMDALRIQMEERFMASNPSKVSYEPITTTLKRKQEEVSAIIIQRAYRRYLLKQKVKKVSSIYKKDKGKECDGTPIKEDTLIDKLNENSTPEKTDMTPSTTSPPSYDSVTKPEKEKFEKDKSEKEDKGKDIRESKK

B1: 6D11: CD73 antibody clone, VH SEQ ID NO: 81, VL SEQ ID NO: 91 (antibody, V domains shown)
VH: EVQLVESGGGLVQPGGSLRLSCAASGFTFSGHWMHWVRQAPGKGLEWIGSIYYSGSTYYNPSLKSRVTISADTSKNTAYLQMNSLRAEDTAVYYCARDRGWLQFDYWGQGTLVTVSS
VL: DIQMTQSPSSLSASVGDRVTITCRASQNIGTYLAWYQQKPGKAPKLLIYDASNLETGVPSRFSGSRSGTDFTLTISSLQPEDFATYYCQQXYTTPPTFGQGTKLEI
modifications: VARIANT 91 natural amino acid or unnatural amino acid
- inhibitory activity against CD73 (in words) [1]: weak inhibitory trend
- IC50 [1]: 0.464 nM

B2: 10A7: CD73 antibody clone, VH SEQ ID NO: 73, VL SEQ ID NO: 83 (antibody, V domains shown)
VH: EVQLVESGGGLVQPGGSLRLSCAASGFAFSSYSMSWVRQAPGKGLEWIGSIYYSGSTYYNPSLKSRVTISADTSKNTAYLQMNSLRAEDTAVYYCARNSGFETLDYWGQGTLVTVSS
VL: B1 VL with N28G, G30S, T31R, Y32W, K45N, D50G, N53T, E55Q, T56S, S60P
modifications: VARIANT 91 natural amino acid or unnatural amino acid
- IC50 [1]: 0.607 nM

B3: 14E6-PEG3-ASF: antibody 14E6 conjugated with ASF-PEG3-DBCO (conjugate)
VH: EVQLVESGGGLVQPGGSLRLSCAASGFTFSNFAMHWVRQAPGKGLEYVSAISGGNGGGTYYADSAKGRFTISADTSKNTAYLQMNSLRAEDTAVYYCAREGNYCLDYWGQGTLVTVSS
VL: B1 VL with N28P, G30S, T31D, Y32W, L46S, S52Y, E55Q, T56S, S60P
modifications: not fully specified; non-natural residues
notes: antibody 14E6 conjugated with ASF-PEG3-DBCO
- inhibitory activity against NaV1.2 at 100 nM (in words) [2]: near-complete inhibition
- inhibitory activity against NaV1.7 (in words) ([3]; tested up to 500 nM where selectivity): no inhibitory activity

B4: G3-PEG3-ASF: IgG1 Ab-UAA G3 conjugated with ASF-PEG3-DBCO (conjugate)
VH: EVQLVESGGGLVQPGGSLRLSCAASGFTFSASYMSWVRQAPGKGLEWIGSIYYSGSTYYNPSLKSRVTISADTSKNTAYLQMNSLRAEDTAVYYCARGAPYYEGAFDIWGQGTLVTVSS
VL: B1 VL with N28Y, G30S, A34N, L46V, Y49S, D50K, A51T, N53Y, T56S
modifications: non-natural residues
notes: IgG1 Ab-UAA G3 conjugated with ASF-PEG3-DBCO
- inhibition of NaV1.2 at 500 nM ([2]; highest tested concentration of 500 nM): approximately 60%
- inhibitory activity against NaV1.2 (in words) [2]: only weak inhibitory activity
- IC50 [3, 5]: 1.88 ± 0.394 nM

B5: F3-PEG3-ASF: IgG1 Ab-UAA F3 conjugated with ASF-PEG3-DBCO (conjugate)
VH: EVQLVESGGGLVQPGGSLRLSCAASGFTFSGHWMHWVRQAPGKGLEWVASISDSSSYIYYADSVRGRFTISRDNAKKTLYLQMNSLRAEDTAVYYCARDYEGATRAADYWGQGTLVTVSS
VL: B1 VL with N28V, T31N, Y32D, A34G, A51V, L54V, E55Q
modifications: non-natural residues
notes: IgG1 Ab-UAA F3 conjugated with ASF-PEG3-DBCO
- inhibitory activity against NaV1.2 (in words) [2]: no inhibitory activity
- IC50 [3, 5]: 2.69 ± 0.687 nM

B6: 15F9-PEG3-ASF: Ab-UAA 15F9 conjugated to ASF-PEG3-DBCO (conjugate)
VH: EVQLVESGGGLVQPGGSLRLSCAASGFTFSKFWMHWVRQAPGKGLEWVSSISSSSSYIYYADSVKGRFTISADTSKNTAYLQMNSLRAEDTAVYYCARDPISTGAFDIWGQGTLVTVSS
VL: B1 VL with N28S, G30S, T31S, Y32W, N53S, T56S
modifications: non-natural residues
notes: Ab-UAA 15F9 conjugated to ASF-PEG3-DBCO
- inhibitory activity against NaV1.7 at 10 nM (in words) ([3]; 10 nM Ab-PEG3-ASF): essentially no inhibitory activity

B7: 15A10-PEG3-ASF: Ab-UAA 15A10 conjugated to ASF-PEG3-DBCO (conjugate)
VH: EVQLVESGGGLVQPGGSLRLSCAASGFPFSGHWMHWVRQAPGKGLEWVSGISGTGATSHYADSVKGRFTISADTSKNTAYLQMNSLRAEDTAVYYCAREVITAASTDAFDLWGQGTLVTVSS
VL: B1 VL with N28S, T31S, Y32S, A34H, K45T, L46V, D50A, N53S, E55Q
modifications: not fully specified; non-natural residues
notes: Ab-UAA 15A10 conjugated to ASF-PEG3-DBCO
- IC50 [3, 6]: 0.138 ± 0.0414 nM

B8: 10A7-Fab-BN3: papain-derived Fab of 10A7 conjugated with BN3, monovalent (conjugate)
VH: B2 VH
VL: B1 VL with N28G, G30S, T31R, Y32W, K45N, D50G, N53T, E55Q, T56S, S60P
modifications: non-natural residues
- inhibitory activity against CD73 (in words) [1]: retained strong inhibitory activity

B9: ABN3-2B-BN3: IgG1 antibody ABN3-2B conjugated to BN3 (conjugate)
VH: EVQLVESGGGLVQPGGSLRLSCAASGFTFSSYWMHWVRQAPGKGLEWVSAVSGSGDSTYYADSVKGRFTISADTSKNTAYLQMNSLRAEDTAVYYCAREGDWGLDYWGQGTLVTVSS
VL: B1 VL with N28G, G30N, T31N
modifications: not fully specified; non-natural residues
- Kdis [4]: 0.000582 s⁻¹
- Kon [4]: 1.85 × 10^5 1/ms

B10: 15F7-PEG3-ASF: Ab-UAA 15F7 conjugated to ASF-PEG3-DBCO (conjugate)
VH: EVQLVESGGGLVQPGGSLRLSCAASGFTFSGHWMHWVRQAPGKGLEWVSAISGSGGSTYYADSVKGRFTISADTSKNTAYLQMNSLRAEDTAVYYCAREVTMVRGVTDAFDIWGQGTLVTVSS
VL: B1 VL with N28G, G30S, T31S, Y32D, A34G, A51V, L54V, E55Q
modifications: non-natural residues
notes: Ab-UAA 15F7 conjugated to ASF-PEG3-DBCO
- inhibition rate of NaV1.7 at 10 nM ([3]; 10 nM Ab-PEG3-ASF): about 60%
- IC50 [3, 6]: 6.48 nM and 6.5 nM

B11: ABN3-2G: CD73 antibody clone, VH SEQ ID NO: 77, VL SEQ ID NO: 87 (antibody, V domains shown)
VH: EVQLVESGGGLVQPGGSLRLSCAASGITFGSYTMSWVRQAPGKGLEWIGTVHYTGKTFYSPSLKSRVTISADTSKNTAYLQMNSLRAEDTAVYYCARGRDFGEPPYVRAFDIWGQGTLVTVSS
VL: B1 VL with R24Q, Q27H, N28D, G30S, T31K, A34N
modifications: not fully specified; VARIANT 91 natural amino acid or unnatural amino acid
- IC50 [1]: 0.565 nM

B12: H3-PEG3-ASF: IgG1 Ab-UAA H3 conjugated with ASF-PEG3-DBCO (conjugate)
VH: EVQLVESGGGLVQPGGSLRLSCAASGFTFSDYWISWVRQAPGKGLEWIGNVYYSGNAYYNPSLESRVTISADTSKNTAYLQMNSLRAEDTAVYYCARNTGFETLDNWGQGTLVTVSS
VL: B1 VL with N28S, G30S, T31S, Y32W, K45N, I48M, D50A, N53S, E55Q, T56S
modifications: non-natural residues
notes: IgG1 Ab-UAA H3 conjugated with ASF-PEG3-DBCO
- IC50 [3, 5]: 1.13 ± 0.191 nM

B13: 14H4-PEG3-ASF: antibody 14H4 conjugated with ASF-PEG3-DBCO (conjugate)
VH: EVQLVESGGGLVQPGGSLRLSCAASGFSFSKFWMHWVRQAPGKGLEWVAFMAHDESNKNYADSVKGRFTISADTSKNTAYLQMNSLRAEDTAVYYCARDKVCNTFDIWGQGTLVTVSS
VL: B1 VL with N28S, G30S, T31S, Y32D, A34N, D50R, S52T, N53F, T56S
modifications: not fully specified; non-natural residues
notes: antibody 14H4 conjugated with ASF-PEG3-DBCO
- inhibitory activity against NaV1.2 at 100 nM (in words) [2]: near-complete inhibition
- inhibition rate of NaV1.7 at 100 nM ([3]; 100 nM): about 30%
- inhibition rate of NaV1.7 at 500 nM ([3]; 500 nM): about 40%

B14: A4-PEG3-ASF: IgG1 Ab-UAA A4 conjugated with ASF-PEG3-DBCO (conjugate)
VH: EVQLVESGGGLVQPGGSLRLSCAASGFTFSGHWMHWVRQAPGKGLEWVSGISGSGGSTYYADSVKGRFTISADTSKNTAYLQMNSLRAEDTAVYYCARELTMATTTDAFDIWGQGTLVTVSS
VL: DIQMTQSPSSLSASVGDRVTITCQASQDIRNDLNWYQQKPGKAPKSLIYAASRLQSGVPSRFSGSRSGTDFTLTISSLQPEDFATYYCQQXYTTPPTFGQGTKLEI
modifications: non-natural residues
notes: IgG1 Ab-UAA A4 conjugated with ASF-PEG3-DBCO
- IC50 [3, 5]: 1.22 ± 0.534 nM

B15: 15C12-PEG3-ASF: Ab-UAA 15C12 conjugated to ASF-PEG3-DBCO (conjugate)
VH: B14 VH with G50A, T104S, I111F
VL: B14 VL with R30S, D32S, K45N, S46L, A51T, R53N
modifications: not fully specified; non-natural residues
notes: Ab-UAA 15C12 conjugated to ASF-PEG3-DBCO
- IC50 [3, 6]: 0.0395 ± 0.00968 nM
